Test results published in publication PMC11076555, “Dishevelled2 activates WGEF via its interaction with a unique internal peptide motif of the GEF” (Communications Biology, 2024).

T1: Dvl2^PDZ (PDZ domain of human Dishevelled2) (Homo sapiens, UniProt O14641)
T1 construct: introducing a stop codon after C354 residue of Dvl2^PDZ to eliminate the fused peptide, cloned at the C-termini of PDZ; 6xHis (N, cleaved yes); host or cells: E. coli Rosetta (DE3)
T1 sequence (O14641 267-339 limits assumed): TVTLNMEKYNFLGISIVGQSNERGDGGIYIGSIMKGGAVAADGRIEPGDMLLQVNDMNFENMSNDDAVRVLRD

B1: Dvl2^PDZ: recombinant PDZ domain of human Dishevelled2 (protein)
chain: MSLNIITVTLNMEKYNFLGISIVGQSNERGDGGIYIGSIMKGGAVAADGRIEPGDMLLQVNDMNFENMSNDDAVRVLRDIVHKPGPIVLTVAKC
modifications: Monolith Red-maleimide 2nd generation cysteine-reactive fluorescent label (in the MST experiments); left off: His6, N-terminal, cleaved
notes: recombinant PDZ domain of human Dishevelled2
B2: hWGEF: recombinant human WGEF construct, residues from 330 to 581 (protein)
chain: PPRANLSPSSSFRAQRSARGSTFSLWQDIPDVRGSGVLATLSLRDCKLQEAKFELITSEASYIHSLSVAVGHFLGSAELSECLGAQDKQWLFSKLPEVKSTSERFLQDLEQRLEADVLRFSVCDVVLDHCPAFRRVYLPYVTNQAYQERTYQRLLLENPRFPGILARLEESPVCQRLPLTSFLILPFQRITRLKMLVENILKRTAQGSEDEDMATKAFNALKELVQECNASVQSMKRTEELIHLSKKIHFEG
modifications: left off: GST, N-terminal, cleaved

Columns and labels:
xWGEF330 = test: In vitro guanine nucleotide exchange (GEF) assay, activation of xWGEF330 by Dvl2^PDZ; type: biochemical, Xenopus laevis; details: 5 µM xWGEF330, 2 µM Mant-GDP loaded RhoA, 25 °C, triplicates
Description: Guanine nucleotide exchange assays were carried out using RhoA loaded with fluorescently labelled Mant-GDP[63],[64]. Briefly, 150 μM of RhoA was incubated with 5 Molar excess of fluorescent label, i.e., Mant-GDP in a buffer containing 10 mM Tris pH 8, 150 mM NaCl, 2 mM DTT, 5 mM EDTA, 0.5 mM MgCl2 and 5% Glycerol. The reaction was incubated on ice for 30 min, followed by the addition of 10 mM MgCl2 to stop the reaction. Excess Mant-GDP was removed through buffer exchange and Mant-GDP loaded RhoA was concentrated and stored at −80 °C. For assays, 2 μM of Mant-GDP loaded RhoA was incubated with 5 μM of xWGEF in the presence or absence of hDvl2^PDZ (0 μM, 25 μM and 50 μM) for 30 min at 25 °C. […] Once the fluorescence was stable, excess GTP (10x of labelled GTPase) was added to start the exchange reaction. […] A decrease in fluorescence was recorded using a BioTek Cytation5 plate reader with excitation and emission of 360 and 440 nm, respectively. Fluorescence was normalized and decrease was fitted using a single exponential decay mode in GraphPad Prism. […]
Guanine nucleotide exchange assays were performed in triplicates. Fluorescence decrease was fitted using a single exponential decay mode in GraphPad Prism. […]

[1] = target: T1, Dvl2^PDZ (PDZ domain of human Dishevelled2); test: Microscale thermophoresis (MST) binding to Dvl2^PDZ; details: Monolith NT.115, 50 nM Red-maleimide labelled Dvl2^PDZ, 10 mM Tris–HCl pH 8, 150 mM NaCl, 2 mM DTT, 5% glycerol, 0.05% Tween20, 30 min at 25 °C, peptides diluted 1:2 16 times from ~3.4 mM, hWGEF 138–0.0042 µM, Kd fit model, triplicates, read-out: Kd (dissociation constant) for Dvl2^PDZ
Description: MST experiments were performed using Monolith NT.115 instrument from Nanotemper technologies. Dvl2^PDZ domain was fluorescently labelled as per the instructions, using Monolith Redmaleimide 2nd generation-cysteine reactive label. The experimental condition consists of 10 mM Tris–HCl pH8, 150 mM NaCl, 2 mM DTT, 5% Glycerol and 0.05% Tween20. For Dvl2^PDZ-peptide affinity determination, synthetic WGEF peptides were serially diluted (1:2) 16 times, starting from an approximate concentration of 3.4 mM. 50 nM of fluorescently labelled Dvl2^PDZ domain was added to the serially diluted peptides, followed by incubation at 25 °C for 30 minutes. Thermophoresis signals were recorded at 20% of excitation power and 40% MST at 25 °C. Data was fitted using the Kd fit model in the MO. Affinity Analysis v2.3 software. Like peptides, hWGEF (330–581) protein was serially diluted to obtain a protein concentration range of 138–0.0042 µM. Experimental conditions were the same as mentioned above for peptides. […]
Guanine nucleotide exchange assays were performed in triplicates. Fluorescence decrease was fitted using a single exponential decay mode in GraphPad Prism. […] Statistical significance was calculated using ordinary One-way ANOVA with multiple comparisons. * Represents adjust P value with statistical significance of ****P < 0.0001, ***P < 0.001, **P < 0.01 and *P ≤ 0.01. […]

| Molecule | Change in GEF activity of xWGEF330 (xWGEF330; 25 µM Dvl2^PDZ) | Change in GEF activity of xWGEF330 (xWGEF330; 50 µM Dvl2^PDZ (10-fold excess)) | Kd [1] [µM] |
| --- | --- | --- | --- |
| B1 | did not show any observable change | fourfold increase | – |
| B2 | – | – | 7.9 ± 0.3 |
